Data set [1] concerns the target Casein.
Data set [2] concerns the target BSA, P02769.
Data set [3] deals with FITC-casein.
In data set [4] the target is neutral lactase (GODO-YNL2; unfragmented high molecular fraction F-1, about 120 kDa), P00723.
The target in data set [5] is Azocoll.
Data set [6] addresses Azocasein.

BSA, P02769, sequence (P02769 25-607): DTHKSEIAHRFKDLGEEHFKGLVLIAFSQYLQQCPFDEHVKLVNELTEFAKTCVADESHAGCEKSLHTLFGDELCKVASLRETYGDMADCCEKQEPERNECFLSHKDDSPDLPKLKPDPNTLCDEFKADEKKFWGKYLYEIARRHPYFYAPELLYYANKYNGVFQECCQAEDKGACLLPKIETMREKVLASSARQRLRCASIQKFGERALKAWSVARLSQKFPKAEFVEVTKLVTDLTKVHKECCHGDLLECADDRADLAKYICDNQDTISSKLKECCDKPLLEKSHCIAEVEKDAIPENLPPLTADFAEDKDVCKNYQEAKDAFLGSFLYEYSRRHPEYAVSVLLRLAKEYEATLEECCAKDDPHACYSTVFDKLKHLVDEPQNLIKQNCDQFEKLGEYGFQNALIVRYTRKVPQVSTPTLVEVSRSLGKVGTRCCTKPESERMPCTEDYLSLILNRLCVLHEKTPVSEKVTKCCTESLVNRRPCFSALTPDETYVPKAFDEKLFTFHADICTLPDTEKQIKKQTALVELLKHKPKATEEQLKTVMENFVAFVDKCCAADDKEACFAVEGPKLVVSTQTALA
neutral lactase (GODO-YNL2; unfragmented high molecular fraction F-1, about 120 kDa), P00723, sequence (P00723 whole entry, the tested form may be a part): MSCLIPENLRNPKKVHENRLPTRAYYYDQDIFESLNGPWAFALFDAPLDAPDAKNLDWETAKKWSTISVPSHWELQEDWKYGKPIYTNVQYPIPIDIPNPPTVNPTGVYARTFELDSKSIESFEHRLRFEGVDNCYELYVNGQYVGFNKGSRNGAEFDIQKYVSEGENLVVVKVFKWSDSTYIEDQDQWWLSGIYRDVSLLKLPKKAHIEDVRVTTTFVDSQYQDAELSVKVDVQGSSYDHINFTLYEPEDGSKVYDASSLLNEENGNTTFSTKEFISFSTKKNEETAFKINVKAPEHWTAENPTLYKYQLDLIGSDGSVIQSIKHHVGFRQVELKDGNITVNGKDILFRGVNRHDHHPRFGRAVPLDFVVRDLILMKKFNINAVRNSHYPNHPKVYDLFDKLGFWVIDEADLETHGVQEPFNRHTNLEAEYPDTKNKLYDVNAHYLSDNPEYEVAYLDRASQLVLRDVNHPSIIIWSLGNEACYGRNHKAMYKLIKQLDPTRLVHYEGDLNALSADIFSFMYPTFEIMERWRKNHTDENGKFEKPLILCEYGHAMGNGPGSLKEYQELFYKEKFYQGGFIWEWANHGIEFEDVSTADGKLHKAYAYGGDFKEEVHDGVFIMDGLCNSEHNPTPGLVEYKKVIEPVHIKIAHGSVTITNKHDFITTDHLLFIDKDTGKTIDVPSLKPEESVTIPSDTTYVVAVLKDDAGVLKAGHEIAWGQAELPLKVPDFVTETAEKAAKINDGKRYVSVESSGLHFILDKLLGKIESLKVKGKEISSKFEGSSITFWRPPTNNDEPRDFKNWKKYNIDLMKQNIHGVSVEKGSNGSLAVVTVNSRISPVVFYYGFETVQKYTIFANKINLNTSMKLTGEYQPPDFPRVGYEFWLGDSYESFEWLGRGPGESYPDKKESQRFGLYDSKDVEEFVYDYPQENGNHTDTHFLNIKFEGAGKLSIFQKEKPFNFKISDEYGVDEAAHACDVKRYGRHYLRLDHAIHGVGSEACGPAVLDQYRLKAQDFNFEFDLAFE

B1: proteinase B derived from Kluyveromyces lactis (mature enzyme) (protein)
chain: SFNTQNSAPWGLARISHREKLNLGSFNKYLYDDDAGKGVTAYVVDTGVNVNHKDFDGRAVWGKTIPKDDPDVDGNGHGTHCAGTIGSVHYGVAKNADIVAVKVLRSNGSGTMSDVVKGVEYVAEAHKKAVEEQKKGFKGSTANMSLGGGKSPALDLAVNAAVKAGVHFAVAAGNENQDACNTSPAAAENAITVGASTLSDERAYFSNWGKCVDIFGPGLNILSTYIGSDTATATLSGTSMATPHVVGLLTYFLSLQPDADSEYFHAAGGITPSQLKKKLIDFSTKNVLSDLPEDTVNY
On to B1, for which the SUBSTRATE SPECIFICITY (relative protease activity, K. lactis PrB) in data set [1] came out at 0; in data set [2], 0; in data set [3], 78; in data set [4], 1160; in data set [5], 1.9; in data set [6], 1.

Source of the values: patent US20190075806.
